One molecule from article PMC12548284, “SIK2-mediated phosphorylation of GABARAPL2 facilitates autophagosome–lysosome fusion and rescues neurodegeneration in an Alzheimer’s disease model” (Translational Neurodegeneration, 2025) can be followed below.

The test has as its target T1, GST-GABARAPL2 (UniProt P60520 1-117).
T1 construct: GABARAPL2 of the bought GST fusion protein; source: bought: Proteintech (Ag1155)
The test is described as follows: pull-down; competitive GST pull-down: GST-GABARAPL2 on glutathione-conjugated Sepharose beads, SIK2 protein in solution, LIR peptide at 0, 5, 10, 20, 40 μmol/L; immunoblot. The note with it: both partners purified. Background: Immunoblotting shows a protein as a band on a membrane.

T1 sequence (P60520 whole entry, the tested form may be a part): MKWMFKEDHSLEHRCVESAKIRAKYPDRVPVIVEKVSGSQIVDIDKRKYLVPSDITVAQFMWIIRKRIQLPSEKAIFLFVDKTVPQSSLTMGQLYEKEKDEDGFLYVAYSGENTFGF

B1: LC3-interacting region (LIR) 326–333 (FAAIYFLL) peptide (peptide)
peptide: FAAIYFLL
notes: SIK2 residues 326-333, the canonical LIR motif within 290-550; also called LIR peptide; source: synthetic peptide; bought: Sangon Biotech
Consider B1, for which the binding result is given as “binds”.
